In patent US20240239899A1 (Memorial Sloan Kettering, published 2024):

Tests used:
[1] = molecular target: T1, HLA-A2 molecule on T2 cells (T2 cells alone, not pulsed) (human); test: flow cytometry, unpulsed T2 cells, secondary anti-His-tag mAb
T1 construct: Stands both for the target 'T2 cells alone' and for the partner of the pulsed peptides in the T2 stabilization assays; also called HLA-A02

[2] = molecular target: T1, HLA-A2 molecule on T2 cells (T2 cells …); test: flow cytometry, titration of 6B1 on unpulsed T2 cells (FIG. 1C)
[3] = molecular target: b-catenin phosphopeptide/HLA-A2 complex on T2 cells (human, phosphoserine at position 4); test: flow cytometry, T2 cells pulsed with 20 µg/ml peptide (FIG. 11)
[4] = molecular target: CCCK phosphopeptide/HLA-A2 complex on T2 cells (human, phosphoserine at position 7); test: as above

B1: 6B1 BisAb h2+2 (L2K scFv inserted into the upper hinge of 6B1 IgG1) (bispecific antibody)
heavy: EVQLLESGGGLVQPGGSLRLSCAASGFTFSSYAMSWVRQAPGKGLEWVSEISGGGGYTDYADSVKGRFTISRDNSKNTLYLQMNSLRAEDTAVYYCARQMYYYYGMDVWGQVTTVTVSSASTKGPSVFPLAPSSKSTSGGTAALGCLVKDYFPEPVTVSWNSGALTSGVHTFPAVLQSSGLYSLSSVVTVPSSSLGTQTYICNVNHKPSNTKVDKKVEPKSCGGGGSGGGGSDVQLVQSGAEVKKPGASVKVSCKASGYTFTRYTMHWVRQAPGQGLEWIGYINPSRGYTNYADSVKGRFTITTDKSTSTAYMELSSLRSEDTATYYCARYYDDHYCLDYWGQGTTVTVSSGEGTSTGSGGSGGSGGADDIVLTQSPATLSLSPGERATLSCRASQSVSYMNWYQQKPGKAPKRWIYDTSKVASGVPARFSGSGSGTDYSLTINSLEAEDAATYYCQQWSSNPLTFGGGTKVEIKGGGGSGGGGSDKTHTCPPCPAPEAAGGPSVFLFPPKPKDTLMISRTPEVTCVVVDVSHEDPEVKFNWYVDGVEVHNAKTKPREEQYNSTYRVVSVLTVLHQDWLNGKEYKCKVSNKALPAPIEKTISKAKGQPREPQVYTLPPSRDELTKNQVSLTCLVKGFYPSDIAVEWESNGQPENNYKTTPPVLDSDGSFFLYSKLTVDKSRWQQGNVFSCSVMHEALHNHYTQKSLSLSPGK
light: EIVLTQSPGTLSLSPGERATLSCRASQSVSANYLAWYQQKPGQAPRLLIYGASSRATGIPDRFSGSGSGTDFTLTISRLEPEDFAVYYCQQSYQRPLTFGQGTKVEIKRTVAAPSVFIFPPSDEQLKSGTASVVCLLNNFYPREAKVQWKVDNALQSGNSQESVTEQDSKDSTYSLSSTLTLSKADYEKHKVYACEVTHQGLSSPVTKSFNRGEC
B1: no binding (tested: 1 or 0.1 µg/ml) [1].

B2: 6B1 BisAb C2+2 (L2K scFv fused to the C-terminus of the 6B1 IgG1 heavy chain) (bispecific antibody)
heavy: not shown
light: EIVLTQSPGTLSLSPGERATLSCRASQSVSANYLAWYQQKPGQAPRLLIYGASSRATGIPDRFSGSGSGTDFTLTISRLEPEDFAVYYCQQSYQRPLTFGQGTKVEIKRTVAAPSVFIFPPSDEQLKSGTASVVCLLNNFYPREAKVQWKVDNALQSGNSQESVTEQDSKDSTYSLSSTLTLSKADYEKHKVYACEVTHQGLSSPVTKSFNRGEC
notes: copies: 2 + 2
B2: no binding (tested: 1 or 0.1 µg/ml) [1].

B3: 6B1 mAb (TCR mimic, full length human IgG1) (antibody, V domains shown)
VH: EVQLLESGGGLVQPGGSLRLSCAASGFTFSSYAMSWVRQAPGKGLEWVSEISGGGGYTDYADSVKGRFTISRDNSKNTLYLQMNSLRAEDTAVYYCARQMYYYYGMDVWGQVTTVTVSS
VL: EIVLTQSPGTLSLSPGERATLSCRASQSVSANYLAWYQQKPGQAPRLLIYGASSRATGIPDRFSGSGSGTDFTLTISRLEPEDFAVYYCQQSYQRPLTFGQGTKVEIK
notes: Full length human IgG1; Conjugated to APC for direct staining of tumor cell lines; also called mAb 6B1; Mab 6B1
B3: no binding (tested: 10 µg/ml to 0.1 µg/ml) [2]; no binding [3]; no binding [4].
